Laboratory results from PMC12525521, “N-Terminal Metal-Binding Domain of Arabidopsis IBR5 Is Important for Its in Planta Functions” (International Journal of Molecular Sciences, 2025).
Several values for one entry are separate records, joined by “and”; a condition that tells them apart may be missing. Identical values can stand only once.

Biological target: the molecule itself
Assay: SEC; FPLC on HiPrep 26/60 Sephacryl S-300 HR after Ni-NTA purification; 100 mM Tris-HCl pH 8.0, 150 mM NaCl; sizes estimated from a standard curve with the Bio-Rad Gel Filtration Standard; His-SUMO tag kept

Protein	stoichiometry N
SUMO-AtIBR5 (N-terminal 6X His-tagged SUMO fused to the 257-amino acid-long Arabidopsis thaliana indole-3-butyric acid response 5) (enzyme, UniProt Q84JU4 1-257, looked up, AtIBR5, dual-specificity phosphatase, Arabidopsis thaliana, UniProt Q84JU4, AT2G04550; One glycine residue (codon GGU) stands as a linker between the 6X His-SUMO tag and AtIBR5; Cloned with the Expresso T7 SUMO system (pETite N-His SUMO Kan vector); Expected monomer about 42 kDa; also called SUMO-AtIBR5 wild-type protein; source: E. coli BL21 HiControl, purified (Ni-NTA, SEC); not shown: His6, …) MRKRERENPCSICGHYHKYEEGEVCGVCGHCMPVSSDTVAPQQVHVSAFPSEILPEFLYLGSYDNASRSELLKTQGISRVLNTVPMCQNLYRNSFTYHGLDNEKVLQFDDAIKFLDQCEKDKARVLVHCMSGKSRSPAVVVAYLMKRKGWRLAESHQWVKQRRPSTDISPEFYQQLQEFEQGIFGSEMMSAMNINDAPTFGFGFPKIDNQAQAPVFNNAPTSSIFSSPASSIPPQEFTFGATPPKPTTGGDIAMDGS	4 and 2
SUMO-AtIBR5-q (quadruple mutant of SUMO-AtIBR5, all four conserved cysteine residues substituted with glycine) (enzyme, Arabidopsis thaliana, UniProt Q84JU4 1-257, looked up, One glycine residue stands as a linker between the 6x His-SUMO tag and AtIBR5; also called quadruple AtIBR5 mutant; C10G C13G C25G C28G; source: E. coli BL21 HiControl, purified (Ni-NTA, SEC); not shown: His6, N-terminal, kept; SUMO, N-terminal, kept) MRKRERENPGSIGGHYHKYEEGEVGGVGGHCMPVSSDTVAPQQVHVSAFPSEILPEFLYLGSYDNASRSELLKTQGISRVLNTVPMCQNLYRNSFTYHGLDNEKVLQFDDAIKFLDQCEKDKARVLVHCMSGKSRSPAVVVAYLMKRKGWRLAESHQWVKQRRPSTDISPEFYQQLQEFEQGIFGSEMMSAMNINDAPTFGFGFPKIDNQAQAPVFNNAPTSSIFSSPASSIPPQEFTFGATPPKPTTGGDIAMDGS	2 and 4
SUMO-AtIBR5-p (N-terminal 6x His-SUMO tag fused to aa 48-257 of AtIBR5, only the DSP_plant_IBR5-like domain) (domain or fragment, Arabidopsis thaliana, UniProt Q84JU4 48-257, looked up, One glycine residue stands as a linker between the 6x His-SUMO tag and the AtIBR5 stretch; also called N-terminally truncated AtIBR5; source: E. coli BL21 HiControl, purified (Ni-NTA, SEC); not shown: His6, N-terminal, kept; SUMO, N-terminal, kept) AFPSEILPEFLYLGSYDNASRSELLKTQGISRVLNTVPMCQNLYRNSFTYHGLDNEKVLQFDDAIKFLDQCEKDKARVLVHCMSGKSRSPAVVVAYLMKRKGWRLAESHQWVKQRRPSTDISPEFYQQLQEFEQGIFGSEMMSAMNINDAPTFGFGFPKIDNQAQAPVFNNAPTSSIFSSPASSIPPQEFTFGATPPKPTTGGDIAMDGS	2 and 4
